Source: patent US20240026407A1, “MODIFICATION OF SAPONINS” (GLAXOSMITHKLINE BIOLOGICALS SA, priority 2020, published 2024)

Columns and labels:
Format in all cases: biochemical, Quillaja saponaria
[1] = Experiment 5-3: screening of additional glucosidases for deglycosylation with QS-18 in treated bark extract (80%) at pH 6 and 35 deg C; conditions: TBE 80% (QS-21 approx. 4 g/L), pH 6, 35 deg C; UV HPLC
Method: Experiment 5-1 was repeated, replacing CBE with Treated Bark Extract (TBE) at pH 6. TBE was prepared from CBE by PVPP treatment and concentration, to provide TBE with a QS-21 concentration of approximately 4 g/L. TBE was adjusted to pH 6 by dropwise addition of 2M NaOH with stirring.

[2] = Experiment 5-2: screening of additional glucosidases for deglycosylation with QS-18 in crude bark extract (80%) at pH 6 and 35 deg C; conditions: CBE 80%, pH 6, 35 deg C, 18 hours; UV HPLC
How it was run: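 Clarified glucosidase lysate (prepared at pH 6) was incubated with pH 6-adjusted crude bark extract at 35 deg C with shaking for 18 hours. Reactions were quenched with MeCN containing 2% AcOH and hexanophenone, then analysed by UV HPLC.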

[3] = Experiment 5-1: screening of additional glucosidases for deglycosylation with purified QS-18 (0.04 mg/ml) at pH 7.5 and 30 deg C; conditions: pH 7.5, 30 degrees C, 18 hours, LCMS/MS
Method: The 94 additional genes, together with positive control (DNA encoding SEQ ID No. 262) and negative control, were transformed, expressed, lysed and reacted in the same manner as described above for Experiment 4-1, except the reaction was incubated at 30 degrees C. for 18 hours.
Samples were analysed by LCMS/MS according to the procedure in Experiment 4-1.

Molecule | Experiment 5-3 % conv [1] [%] | Experiment 5-2 % conv [2] [%] | Experiment 5-1 % conv [3] [%]
809 (protein, listed as Rhodococcus erythropolis) MELTAATGRNDVTENYVDGLSLEEKASLTSGSDFWHSQSVAGIESILLTDGPHGVRKQPEGGDALGLGHSIPATCFPPAVGLGSSWNLDLIRQVGEALGDEAKAEQVSVLLGPGINIKRSPLCGRNFEYVSEDPFLSGRVAAALITGIQSRGVGTSLKHFAANNQEHDRMRVSADVDERTLREIYLAGFEYAVKTAAPTTVMCSYNKINGVYSSQNHWLLTEVLREQWGFDGLVVSDWGAVNDRVAALAAGLDLEMPPTGTDTQIVDAVRGGDLDESVLTTAAERLSTLVKRTAAARTEGHTYDVERHHELARTAAAESAVLLANDGELLPLTPGGQTVAVIGEFACSPRYQGAGSSQVVPTKLDNALDAILDLEGADRVTFAPGFTFDGTPDDHMVTEAVDAARRADVAVLFLGLPSATESEGFDRTDIELPADQIALLEAVHGANPNTVVVLANGGVVSIEPWKDHAAAILEGWLLGQAGGSAIADLLFGITNPSGRLTETIPLRLQDNPSYLHFPGSQQHVRYGEGLYVGYRYYDSALREVAYPFGFGLSYTTFDITDTSVDAGKNSAEVTVTVRNSGDRSGSTVVQVYVHDASASIDRPAQELKGFAKVHLDPDESATVTITLDTRAFAYWSVAAQDWAIEPGDYEIRVGFSSRDIATTDTITLAGNVGVGTLDAMSTIGEWLAHPVGSAVLGAAMAAAAGDGAQAVSPEMMALAGSMPLGKLATFGLGITEEQVAQLVAAAAQPGS | <0.5 | <0.5 | 6.3
862 (protein, listed as Bifidobacterium thermacidophilum) MDATTGTNKAPAPAQARQGNGRGGNEGRNASEIRHRVDDLTLEQKASLTSGADAWHVQGIDECGIPGYMITDGPHGLRKARPAEEQKTGLGDAVPVTCFPPAAGLSSSWDPGLVREVGEAMGEECIQEKVAVILGPAVNIKRNPLGGRCFEYWSEDPFLAGHEAVGIVEGVQSKGVGTSLKHFAANNQETDRLRISATISPRALREIYLPAFEYIVKTAQPWTVMCSYNRINGVHSAQNRWLLTDVLRREWGFQGIVMSDWGADHDRVASLNAGLNLEMPPSGTDDQIVAAVRDGRIAPEQLDSMAQGMIDLVAKAQPAMSRDGYRYDRDRHYDIARRAARESMVLLKNEQGTLPVRPGVRVAVIGEFARTARYQGGGSSHITPDRMSSFLDATARRGEQVDFAPGFTLDLDPADPVLEAQAIETARHADIVLMFMGLPEAAESEGFDRTSLDIPAKQTSLLHKISAVNPHVAVILSNGSVVSVAPWCDDAQAILESWLLGEAGGDALADVVFGDVSPSGKLAQTIPLDINDDPTMLNWPGEEGHVDYGEGVFVGYRYYDTYRKPVAYPFGFGLSYATFDVHDARVRRLGVDDAARVAAERAAGDAAQGNDVARADGAAHVDGACGAVVRVDATVTNTSDAPGAQVVEIYVAPGKSQVARPVHELKGFARVDLAPGESKAVSITLDERAFAYWSQRFDDWHVEAGDYTVEVGTSSRDIVARIPAHLDGDGKTMPLDEWSTFGEWAADPVGARVVEAVGREADQGRLPRLPQNGVMRIFLMAAPVNSLQMILGEEGLEVARFMLDEYRRIRG | <0.5 | <0.5 | 4.2
805 (protein, uncultured Clostridium sp.) MLDIEKLIDEMTLEEKAGLCSGDDMWHTKAVERLGIPRIKMSDGPHGMRTFDDNGKVIPAVCFPTGSALAASFDTELVERVGAAIGEAAKTNGVHTVLGPAVNMKRSPLCGRNFEYLSEDPYLAGKLGSAMVRGIQSKGVGACPKHFAVNNQETRRMSVSADLSERTLREVYLPAFETIVKESSPHTMMCAYNRINGTYASENEHLLDEILRKEWGYQGIVMTDWSAMNRRPRALQAGLELEMPSSAGVNDEKIVEAVKAGDLSIEVLDEAVRRLLTWINAELQGRTESVCDLGVQRELAREAAGKSAVLLKNDDVLPLRKGDKIAFIGGFADKPRFEGGGSSHVSVEHMVNAIDAAKDIPNITYTEGFNTDDALSDYELVAEAVRIASEADVAVIFAGLPAAFESEGHDRTTLEIPESQNKLIAAISAVQPKTVVVFHGGSPVYMPWRKDVAAILYMYLGGQEVGSASVDLLFGDRNPSGKLAETFPLKLEDTPCYMNFPGDGNNAEYSEGIYIGYRWYDKRKIAVEYPFGFGMSYSDFIYRQIRSANSRITDTDTLKIYVDVQNRGEYAGEEIVQLYVQPSKARQGVRPVKELKGFKKMMIAPGETKTVCFELDKRSFAEYKPEISGWYAATGEYTILAGGSSDNLPLQVKVYVESTDTIPLVYNDYTTIGDLWDSGLDVNEVLDALDAKQTDLSALGLPADKMDRAIHMEEVKRGMPIHAVISMGGRDMNKIYQALLKVDGLEGKENIPL | <0.5 | <0.5 | 3.8
848 (protein, uncultured microorganism) MTLEEKVSMVAGADAWHSTGVERLGIPAIKVTDGPNGARGGDFGGGVGSACFPVGVCLGSTWNTALIERVGQALGQEVQSKQAHILLAPTVNIHRSPLNGRNFECYSEDPYLTARIAAAYITGVQKQGVGACIKHFVCNDSEFERHSISSEVGERALREIYLPPSETAVREAGVWAVMSAYNKLNGTYCSENPYTLLEILKGEWGFEGIVISDWGGTYSTVEAAANGLDLEMPGPARWMGEKLLQAMRDGQVSGPKKLGEAVDDKVRRLLWTIEKAGAQLGPEPPEQAIDRPEHRALIRQAAGEGIVLLKNDGVLPLDGARVKRIAVIGPNAAEAKIMGGGSAQVKAHYAVSPLDGIRARAGEAVDVQCALGCTNYREIPELKTEWLTPVGGGESGWTVAYYNNLDLAGDPVRAETTDRTRMMWFGQVAPGVDRECFSARLSGTLTVPQSGTYTLSLNSAGVSRIAIDGELVLDNWTDYRPSRGPFDRDRKVPTAEVELTAGQGYTFVVEYSKQQSPRFAMLRVGCLPAQPADLMERAVQAAAKADVALVFIGTSGEWESEGFDRPDMELPGRQVELLEAVAAANPNTVAVLNTGSPVSVRWLDKVAALVEAWFPGQECGNAIADVLFGDVNPSGRLSQTWPVRLQDNPAYINYPGENGRVLYGEGLFVGYRYYEKKQIEPRFPFGHGLSYTTFEYGALRLQSEYTLGEPIAVSVDVTNTGPVAGQEVVQLYVRDEESSLVRPEKELKAFAKLALEPGETQTVTLTLDERALSFYDDAKAGWVAEAGEFTVLVGASSRDIRCTARFTLTVPPDRS | <0.5 | <0.5 | 3.8
864 (protein, listed as Stagonospora sp.) MPYKVNDESREGEGLNALLGALTLDEKISLLSAKNIWETPEVERVGIPSLKVTDGPNGARGGEFFDGTTAACFPACVSLAATFDRALSRQVGRALGQEAITKGAYVVLGPTVCCHRSPLGGRNFEAFSEDPVLSGALASEYVKGLQEERVAATVKHFLANEQDTRRFSVDQTISERALREIYLKPFEIVAKQADPWCFMSSYPKINGKHVDAQSKFLIDILRKEWGYEGMVMSDWGAASTVEGIKYGLDMEMPGPPRQREANLVRNAVKKGQISEGDIDARVLSTLNLLKKVGKFSDRKDTPKEQAIDRPEHRALIRKAGREGIVLLKNQNNILPIDIKKTQKVALLGPLAKYAAAHGGGSASLNCHYKITPYDAFTERLGKDVEITHSKGAHIFRVYPDLDAGCKNAHGNVGFLAEYFMEGDIEPSSVPFRIEEFPRGSFNTLMNTNVTGCKSVRFTTTYRPPVTGKHYLSFSGLGPSHLSINGVMVAEQKNSTKDAMSFFLGVQEEERVQFDFDAAKTYDLIMETHPSPTNNAELYLMEGQTSIHLGFIAQAEMEQDVLAEAVDLAKDADLAIVFVGNTTQWETEGQDLSSMTLPADGSQDNLIASVVAANPKTIVVNTTGVPVELPWLDDVPAFLQAWYAGQETGNAILDVLLGEMSPSGKLPISWPKKYEHTGCYGNFGLDSFDSRKVEYVEGVFVGYRWFDRQWGHDKEVRFPFGYGLSYTEFSITDTRISGSIANDKNARVTVAANVKNVGSMSGSEILQVYLEPPVEEGIDRPVKGLVGFVKVELQPKEEKTVEVVFARDAAAFWDEAANEWAVSMGLHHIVVATSAAPVDIKARLELHVENAFKFDP | <0.5 | <0.5 | 3.9
875 (protein, listed as Exophiala spinifera) MGSYSGSQQGFESIISGLTVEEKATLLSGADFWTTSPVTRVGIPALKVSDGPNGARGGHFQGKTTSACFPASVSLAASFDREFAYKIGRALGQETKTKGAHVLLGPTVCHHRDPRGGRNFESFSEDPLLAGELASEWIAGLQSEGVGATVKHYAVNEQETRRFTIDARVDQRALREIYLKPFEIAVKRADPWAIMTSYNLVNGKHADEHKELITDILRGQWGFKGLVMSDWGGTNSVAPSLNAGHDLEMPGPPLKRTVDNIQRALQTGELTEDTLNQRVGNVLKLLQRAGKFENPEIAEEQAVDLPEHRSLIRQAAAESMVLLKNTNNILPLKSTNTKSIALLGLAREYLGHGGGSASVNSHHKVTAYEALQAAVGSSVQLNYAEGARIVRNLSPLSENVYNEEGVPGFTMKTFSKLNGDNPTVSTVPSSVYRTLEPSSIDQMTLLGTFKPKTSGLHYISLSTLGGTRVYINDELVFDYSNSQTTDIMAFLIGSPGEDKKRYLFTAGESYRIRIEAKATKDTISGFSLFTKEAIGFSLGFALESEHDADLLTAAIEAAKSSDVAVVFVGHTPIWESEGADRSGMDLPKDGSLDALVVAAAKVNPNTVVVNSTGSAISMPWIEDVAAVVQAWFPGQEAGHSIADVLLGKVTPSGKLPVTFPRAITDVPSYENFPGDIKNEVVHYKESIYTGYRHFDRRPEGVLFPFGFGLSYTTFDVVVTSVSRTKLRNHETLTVSADVTNTGTTEGAEVVQVYVGAGEGTSAIDRPAKELAGFAKVHLRPGEARKVAITFGRDSVAYWNESRDKWSVDKGAYTIYVGTSSVDIAGKLEVEVPEAFDFDP | <0.5 | <0.5 | 4.7
